# Measured values taken from IntAct's records for PubMed 20526328.
# B1: Kinesin-like protein KIF17 (Homo sapiens), Q9P2E2 (parent)
# chain: MASEAVKVVVRCRPMNQRERELRCQPVVTVDCARAQCCIQNPGAADEPPKQFTFDGAYHVDHVTEQIYNEIAYPLVEGVTEGYNGTIFAYGQTGSGKSFTMQGLPDPPSQRGIIPRAFEHVFESVQCAENTKFLVRASYLEIYNEDVRDLLGADTKQKLELKEHPEKGVYVKGLSMHTVHSVAQCEHIMETGWKNRSVGYTLMNKDSSRSHSIFTISIEMSAVDERGKDHLRAGKLNLVDLAGSERQSKTGATGERLKEATKINLSLSALGNVISALVDGRCKHVPYRDSKLTRLLQDSLGGNTKTLMVACLSPADNNYDETLSTLRYANRAKNIRNKPRINEDPKDALLREYQEEIKKLKAILTQQMSPSSLSALLSRQVPPDPVQVEEKLLPQPVIQHDVEAEKQLIREEYEERLARLKADYKAEQESRARLEEDITAMRNSYDVRLSTLEENLRKETEAVLQVGVLYKAEVMSRAEFASSAEYPPAFQYETVVKPKVFSTTDTLPSDDVSKTQVSSRFAELPKVEPSKSEISLGSSESSSLEETSVSEAFPGPEEPSNVEVSMPTEESRSRYFLDECLGQEAAGHLLGEQNYLPQEEPQEVPLQGLLGLQDPFAEVEAKLARLSSTVARTDAPQADVPKVPVQVPAPTDLLEPSDARPEAEAADDFPPRPEVDLASEVALEVVRTAEPGVWLEAQAPVALVAQPEPLPATAGVKRESVGMEVAVLTDDPLPVVDQQQVLARLQLLEQQVVGGEQAKNKDLKEKHKRRKRYADERRKQLVAALQNSDEDSGDWVLLNVYDSIQEEVRAKSKLLEKMQRKLRAAEVEIKDLQSEFQLEKIDYLATIRRQERDSMLLQQLLEQVQPLIRRDCNYSNLEKILRESCWDEDNGFWKIPHPVITKTSLPVAVSTGPQNKPARKTSAADNGEPNMEDDRYRLMLSRSNSENIASNYFRSKRASQILSTDARKSLTHHNSPPGLSCPLSNNSAIPPTQAPEMPQPRPFRLESLDIPFTKAKRKKSKSNFGSEPL
# Variants of: B1
# Settings: with tnpo1_human TNPO1, Q92973
# Sequence of tnpo1_human TNPO1, Q92973 (Q92973 whole entry): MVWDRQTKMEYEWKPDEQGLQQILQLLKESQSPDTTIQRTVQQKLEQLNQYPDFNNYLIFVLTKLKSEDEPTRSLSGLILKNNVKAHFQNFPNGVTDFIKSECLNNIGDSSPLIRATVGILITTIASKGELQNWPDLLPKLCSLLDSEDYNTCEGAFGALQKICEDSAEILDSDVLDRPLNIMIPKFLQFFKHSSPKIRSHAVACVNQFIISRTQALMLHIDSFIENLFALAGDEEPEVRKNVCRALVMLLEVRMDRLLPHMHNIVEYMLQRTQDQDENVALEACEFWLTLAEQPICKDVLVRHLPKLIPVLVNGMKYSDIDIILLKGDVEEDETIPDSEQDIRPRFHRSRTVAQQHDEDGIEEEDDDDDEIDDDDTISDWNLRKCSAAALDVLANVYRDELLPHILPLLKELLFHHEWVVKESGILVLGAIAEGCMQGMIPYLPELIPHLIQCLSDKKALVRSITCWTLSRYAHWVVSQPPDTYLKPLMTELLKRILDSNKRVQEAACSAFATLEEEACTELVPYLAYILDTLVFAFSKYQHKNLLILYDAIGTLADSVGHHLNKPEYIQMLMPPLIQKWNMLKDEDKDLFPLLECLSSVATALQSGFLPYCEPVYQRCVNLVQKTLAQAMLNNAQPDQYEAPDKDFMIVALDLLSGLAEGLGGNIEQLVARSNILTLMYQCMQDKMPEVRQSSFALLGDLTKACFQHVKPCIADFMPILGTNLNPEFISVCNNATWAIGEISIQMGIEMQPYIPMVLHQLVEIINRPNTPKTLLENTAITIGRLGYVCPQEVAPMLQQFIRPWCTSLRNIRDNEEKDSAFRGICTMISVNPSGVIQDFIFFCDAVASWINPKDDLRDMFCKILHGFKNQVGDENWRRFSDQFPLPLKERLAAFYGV
row,effect of a mutation on the interaction,Variant
1,disrupting interaction strength,K1016A;R1017A;K1018A;K1019A
